Measured values reported in PMC7864067.

Molecular target: PFN2 (endogenous, isoform not told apart) (human (endogenous in HAP1)) (UniProt P35080)
Chain of UniProt P35080 (P35080 whole entry, canonical isoform): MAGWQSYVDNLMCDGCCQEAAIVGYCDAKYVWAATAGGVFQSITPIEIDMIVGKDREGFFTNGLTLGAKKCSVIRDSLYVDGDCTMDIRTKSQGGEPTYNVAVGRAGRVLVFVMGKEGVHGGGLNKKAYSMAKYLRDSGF

actin reacetylation assay in HAP1 NAA80-KO cells, 8-14 h after transfection: Ac-β-actin signal normalised to V5, compared with cells transfected with NAA80-WT, at 14 h: 64%
actin reacetylation assay in HAP1 NAA80-KO cells, 8-14 h after transfection: Ac-γ-actin signal normalised to V5, compared with cells transfected with NAA80-WT, at 14 h: 62%
Substance: V5-NAA80 (M23L) Δ238-284 (enzyme)
